Results from patent publication US20130324477A1 (L OREAL, published 2013).

Target: T1, filaggrin-2 (FLG2) fragment identified as prey in the double-hybrid screens, corresponding to amino acids … (human, UniProt Q5D862 2-213)
T1 construct: range 2-213; Prey
T1 sequence (looked up): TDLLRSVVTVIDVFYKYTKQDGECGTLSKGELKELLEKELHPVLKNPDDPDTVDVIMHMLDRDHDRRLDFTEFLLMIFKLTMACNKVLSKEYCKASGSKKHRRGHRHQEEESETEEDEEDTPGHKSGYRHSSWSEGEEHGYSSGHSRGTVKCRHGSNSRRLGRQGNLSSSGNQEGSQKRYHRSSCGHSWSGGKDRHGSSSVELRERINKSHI
Experiment: supplementary double-hybrid experiments

B1: N-terminal fragment of SASPase-28 (amino acids 11-86, SEQ ID No.: 16) (peptide)
chain: RQHAFVPEPFDGANVVPNLWLHSFEVINDLNHWDHITKLRFLKESLRGEALGVYNRLSPQDQGDYGTVKEALLKAFG
binding result: binds
